Source: the supplement of paper PMC10567573

B1: SMG5 (parent)
chain: TRKLSPGKKRCKDIKRLLVNFMYL

Variants of: B1
Experiment: protein stability index of a GFP-peptide fusion (GPS, HEK-293T) (PSI 1-6); higher = more stable
Conditions: c terminus: a fixed tail appended
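Also: lentivirally expressed fusions sorted by FACS into six bins by GFP to DsRed ratio, PSI derived from sequencing read proportions per bin multiplied by bin number.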

Compared with TRKLKPGKKRCKDIKRLLVNFMYL, TRKLPPGKKRCKDIKRLLVNFMYL is lower in protein stability index: 4.05 for the first, 2.54 for the second.

First: TRKLGPGKKRCKDIKRLLVNFMYL
Second: TRALSPGKKRCKDIKRLLVNFMYL
The protein stability index of the first is higher: 2.7 for the first, 2.18 for the second.

Compared with TRFLSPGKKRCKDIKRLLVNFMYL, TRTLSPGKKRCKDIKRLLVNFMYL is lower in protein stability index: 2.44 for the first, 1.66 for the second.

First: TRCLSPGKKRCKDIKRLLVNFMYL
Second: TRMLSPGKKRCKDIKRLLVNFMYL
The protein stability index of the first is lower: 2.31 for the first, 2.94 for the second.

Compared with TRNLSPGKKRCKDIKRLLVNFMYL, TRGLSPGKKRCKDIKRLLVNFMYL is higher in protein stability index: 2.16 for the first, 3.74 for the second.

Going from TRILSPGKKRCKDIKRLLVNFMYL to TRELSPGKKRCKDIKRLLVNFMYL, the protein stability index rises from 2.34 to 2.41.

Compared with TRKLSDGKKRCKDIKRLLVNFMYL, TRKLSYGKKRCKDIKRLLVNFMYL is higher in protein stability index: 2.55 for the first, 3.31 for the second.

Compared with TRKLSSGKKRCKDIKRLLVNFMYL, TRKLSTGKKRCKDIKRLLVNFMYL is higher in protein stability index: 2.1 for the first, 2.59 for the second.

First: TRKLSPGKKRCKDIKMLLVNFMYL
Second: TRKLSPGKKRCKDIKDLLVNFMYL
The protein stability index of the first is higher: 4.38 for the first, 1.6 for the second.

Going from TRKLSPGKKRCKDIKKLLVNFMYL to TRKLSPGKKRCKDIKGLLVNFMYL, the protein stability index falls from 2.01 to 1.71.

First: TRKLSPGKKRCKDIKPLLVNFMYL
Second: TRKLSPGKKRCKDIKNLLVNFMYL
The protein stability index of the first is lower: 2.24 for the first, 2.58 for the second.

Compared with TRKLSPGKKRCKDIKILLVNFMYL, TRKLSPGKKRCKDIKSLLVNFMYL is lower in protein stability index: 3.39 for the first, 1.36 for the second.

Going from TRKLSPGKKRCKDIKCLLVNFMYL to TRKLSPGKKNCKDIKRLLVNFMYL, the protein stability index rises from 2.27 to 3.09.

First: TRKLSPGKKLCKDIKRLLVNFMYL
Second: TRKLSPGKKHCKDIKRLLVNFMYL
The protein stability index of the first is higher: 3.06 for the first, 2.2 for the second.

First: TRKLSPGKKECKDIKRLLVNFMYL
Second: TRKLSPGKKQCKDIKRLLVNFMYL
The protein stability index of the first is lower: 2.67 for the first, 3 for the second.

Going from TRKLSPGKKCCKDIKRLLVNFMYL to TRKLSPGKKPCKDIKRLLVNFMYL, the protein stability index rises from 2.23 to 3.4.

Going from TRKLSPGKKGCKDIKRLLVNFMYL to TRKLSPGKKYCKDIKRLLVNFMYL, the protein stability index falls from 3.25 to 3.14.

First: TRKLSPGKKRCKTIKRLLVNFMYL
Second: TRKLSPGKKRCKVIKRLLVNFMYL
The protein stability index of the first is lower: 3.66 for the first, 3.74 for the second.

First: TRKLSPGKKRCKAIKRLLVNFMYL
Second: TRKLSPGKKRCKYIKRLLVNFMYL
The protein stability index of the first is higher: 2.75 for the first, 1.79 for the second.

First: TRKLSPGKKRCKNIKRLLVNFMYL
Second: TRKLSPGKKRCKRIKRLLVNFMYL
The protein stability index of the first is lower: 1.5 for the first, 1.71 for the second.

Compared with TRKLSPGKKRCKSIKRLLVNFMYL, TRKLSPGKKRCKLIKRLLVNFMYL is higher in protein stability index: 2.42 for the first, 2.93 for the second.

Going from TRKLSPGKKRCKCIKRLLVNFMYL to TRKLSPGKKRCKIIKRLLVNFMYL, the protein stability index rises from 1.84 to 3.25.

Compared with TRKLSPGKKRCKPIKRLLVNFMYL, TRKLSPGWKRCKDIKRLLVNFMYL is higher in protein stability index: 2.62 for the first, 2.79 for the second.

Compared with TRKLSPGLKRCKDIKRLLVNFMYL, TRKLSPGRKRCKDIKRLLVNFMYL is lower in protein stability index: 2.75 for the first, 2.2 for the second.

Going from TRKLSPGCKRCKDIKRLLVNFMYL to TRKLSPGFKRCKDIKRLLVNFMYL, the protein stability index rises from 3.19 to 4.35.

First: TRKLSPGHKRCKDIKRLLVNFMYL
Second: TNKLSPGKKRCKDIKRLLVNFMYL
The protein stability index of the first is higher: 3.49 for the first, 1.94 for the second.

Compared with TCKLSPGKKRCKDIKRLLVNFMYL, TSKLSPGKKRCKDIKRLLVNFMYL is higher in protein stability index: 2.19 for the first, 2.78 for the second.

First: TTKLSPGKKRCKDIKRLLVNFMYL
Second: THKLSPGKKRCKDIKRLLVNFMYL
The protein stability index of the first is higher: 2.24 for the first, 1.38 for the second.

First: TEKLSPGKKRCKDIKRLLVNFMYL
Second: TIKLSPGKKRCKDIKRLLVNFMYL
The protein stability index of the first is lower: 1.04 for the first, 3.09 for the second.

Going from TVKLSPGKKRCKDIKRLLVNFMYL to TYKLSPGKKRCKDIKRLLVNFMYL, the protein stability index rises from 2.98 to 4.16.

Going from TRKLSPGKKRCKDIKRLLVNFMYR to TRKLSPGKKRCKDIKRLLVNFMYC, the protein stability index falls from 2.39 to 1.39.

Compared with TRKLSPGKKRCKDIKRLLVNFMYH, TRKLSPGKKRCKDIKRLLVNFMYT is higher in protein stability index: 1.55 for the first, 2.02 for the second.

Compared with TRKLSPGKKRCKDIKRLLVNFMYQ, TRKLSPGKKRCKDIKRLLVNFMYA is higher in protein stability index: 2.04 for the first, 2.34 for the second.

First: TRKLSPGKKRCKDIKRLLVNFMYG
Second: TRKLSPGKKRCKDIKRLLVNFMYM
The protein stability index of the first is lower: 2.92 for the first, 3 for the second.

First: TRKLSPGKKRCKDIKRLLVNFMYS
Second: TRKLSPGKKRCQDIKRLLVNFMYL
The protein stability index of the first is lower: 1.98 for the first, 2.46 for the second.

First: TRKLSPGKKRCYDIKRLLVNFMYL
Second: TRKLSPGKKRCNDIKRLLVNFMYL
The protein stability index of the first is higher: 2.96 for the first, 2.14 for the second.

Compared with TRKLSPGKKRCPDIKRLLVNFMYL, TRKLSPGKKRCMDIKRLLVNFMYL is lower in protein stability index: 2.41 for the first, 1.74 for the second.

Going from TRKLSPGKKRCLDIKRLLVNFMYL to TRKLSPGKKRCFDIKRLLVNFMYL, the protein stability index falls from 3.13 to 2.73.

Going from TRKLSPGKKRCWDIKRLLVNFMYL to TRKLSPGKKRCRDIKRLLVNFMYL, the protein stability index falls from 3.15 to 2.47.

Compared with TRKLSPGKKRCTDIKRLLVNFMYL, TRKLSPGKKRCKDIWRLLVNFMYL is lower in protein stability index: 2.96 for the first, 2.09 for the second.

Going from TRKLSPGKKRCKDIQRLLVNFMYL to TRKLSPGKKRCKDIMRLLVNFMYL, the protein stability index rises from 1.64 to 2.66.

First: TRKLSPGKKRCKDILRLLVNFMYL
Second: TRKLSPGKKRCKDIARLLVNFMYL
The protein stability index of the first is lower: 2.08 for the first, 3.83 for the second.

Compared with TRKLSPGKKRCKDITRLLVNFMYL, TRKLSPGKKRCKDINRLLVNFMYL is lower in protein stability index: 3.37 for the first, 3.35 for the second.

Going from TRKLSPGKKRCKDIDRLLVNFMYL to TRKLSPGKKRCKDIKRLLSNFMYL, the protein stability index rises from 1.3 to 2.12.

Compared with TRKLSPGKKRCKDIKRLLTNFMYL, TRKLSPGKKRCKDIKRLLENFMYL is lower in protein stability index: 1.84 for the first, 1.68 for the second.

Compared with TRKLSPGKKRCKDIKRLLCNFMYL, TRKLSPGKKRCKDIKRLLYNFMYL is higher in protein stability index: 2.31 for the first, 4.05 for the second.

Compared with TRKLSPGKKRCKDIKRLLHNFMYL, TRKLSPGKKRCKDIKRLLPNFMYL is lower in protein stability index: 2.72 for the first, 2.62 for the second.
